Assays:
[1] = flow cytometry and immunofluorescence; settings: glycan changed form; control: 231 cells
[2] = CHX (20 µM) chase, PD-L1 half-life; settings: glycan changed form; control: 231 cells
[3] = western blot of extracellular vesicles; settings: glycan changed form; control: 231-EVs
[4] = western blot, flow cytometry, confocal microscopy; settings: glycan changed form; control: MCF7 cells

With PD-L1: 231-MGAT3 (MGAT3 overexpression) the expression_or_secretion [1] was “decreases” and the degradation_or_half_life [2] was “decreases”.

For “PD-L1: 231-MGAT3-EVs (MGAT3 overexpression)”, the expression_or_secretion [3] was “decreases”.

With PD-L1: MCF7-shM3 (MGAT3 shRNA) the expression_or_secretion [4] was “increases”.

Source: publication PMC12323189
